Patent US20180328920A1 (Hoffmann-La Roche, published 2018)

Tests used:
[1] = molecular target: T1, Tim3-CLIP (human Tim3 extracellular domain - CLIP tag - Tim3 transmembrane region - Flag tag, on HEK293 cells) (human, CLIP tag labelled with CLIP-Red (FRET acceptor dye)); experiment: cell-based TR-FRET on PD1-SNAP/Tim3-CLIP HEK293 cells (FIG. 5)
T1 construct: also called Tim3 receptor on PD1+Tim3+ HEK cells
Procedure: Transfected cells were sedimented and resuspended at a density of 1×10⁶ cells/ml in tag-Lite® buffer (Cisbio). Thereafter, cells were stained with 100 nM SNAP-Lumi4-Tb (Cisbio) and 100 nM CLIP-Red (Cisbio) for one hour at 37° C. in tag-Lite® buffer (Cisbio). After washing and re-suspending in PBS buffer comprising 2% FCS (v/v), about 50.000 cells (in 50 μl volume) were seeded into 96-well flat-bottom white plates (Costar) bevor either control antibody (e.g. a bivalent, monospecific antibody or an isotype control) or bispecific antibody was added to the cells at a final concentration of 0.001-10 nM. After an incubation for one hour at 4° C. or room temperature, time-resolved fluorescence was measured as ratio of the emission signal at 665 nm and 620 nm (665/620 nm ratio) with a BMG Pherastar reader or Tecan Infinite M1000 Pro using standard settings provided by the respective vendor.

[2] = molecular target: T2, PD1-SNAP (human PD1 extracellular domain - SNAP tag - PD1 transmembrane region - Flag tag, on HEK293 cells) (human, SNAP tag labelled with SNAP-Lumi4-Tb (FRET donor dye)); experiment: cell-based TR-FRET (Tag-lite) on HEK293 cells co-expressing PD1-SNAP and Tim3-CLIP; signal needs simultaneous binding of both
T2 construct: also called PD1 receptor on PD1+Tim3+ HEK cells

[3] = molecular target: T2, PD1-SNAP (human PD1 extracellular …); experiment: cell-based TR-FRET on PD1-SNAP/Tim3-CLIP HEK293 cells, antibody at 0.01-40 nM, 1 h at 4 C (FIG. 6, diamond)
Procedure: (§1) Transfected cells were sedimented and resuspended at a density of 1×10⁶ cells/ml in tag-Lite® buffer (Cisbio). Thereafter, cells were stained with 100 nM SNAP-Lumi4-Tb (Cisbio) and 100 nM CLIP-Red (Cisbio) for one hour at 37° C. in tag-Lite® buffer (Cisbio). […] After an incubation for one hour at 4° C. or room temperature, time-resolved fluorescence was measured as ratio of the emission signal at 665 nm and 620 nm (665/620 nm ratio) with a BMG Pherastar reader or Tecan Infinite M1000 Pro using standard settings provided by the respective vendor.
(§2) To show the specificity of the FRET signal induced by simultaneous binding of the bispecific antibody, monoclonal IgGs of only one specificity were added for competition. Therefore, PD1 and Tim3 expressing HEK cells as described before were labelled with 100 nM SNAP-Lumi4-Tb and 100 nM CLIP-Red. […] A FRET signal was detected. To underline the specificity of FRET signal after bispecific antibody treatment, a monospecific, bivalent anti-PD1 monoclonal antibody was tested alone (FIG. 6, triangle). No FRET signal was detected. If the monospecific, bivalent anti-PD1 monoclonal antibody and the bispecific anti-PD1/Tim3 antibody were present (80 nM monospecific antibody concentration) no FRET signal was detected (FIG. 6, squares). Likewise no FRET signal was obtained if a bivalent, monospecific anti-Tim3 antibody was added (see FIG. 7).

[4] = molecular target: T1, Tim3-CLIP (human Tim3 extracellular …); experiment: as above
Procedure: as §1, §2

[5] = molecular target: T1, Tim3-CLIP (human Tim3 extracellular …); experiment: cell-based TR-FRET (Tag-lite) on HEK293 cells co-expressing PD1-SNAP and Tim3-CLIP; signal needs simultaneous binding of both

Binder | binding result [2] | binding result [5] | further results
PD1-Tim3-0389 (bispecific antibody, human IgG1, kappa, L234A L235A, also called bispecific anti-PD1/Tim3 antibody) heavy 1: not shown heavy 2: EVQLQQSVAELVRPGASVKLSCTASGFNIKTTYMHWVKQRPEQGLEWIGRIDPADDNTKYAPKFQGKATITADTSSNTAYLQLSSLTSEDAAIYYCVRDFGYVAWFAYWGQGTLVTFSAASTKGPSVFPLAPSSKSTSGGTAALGCLVEDYFPEPVTVSWNSGALTSGVHTFPAVLQSSGLYSLSSVVTVPSSSLGTQTYICNVNHKPSNTKVDEKVEPKSCDKTHTCPPCPAPEAAGGPSVFLFPPKPKDTLMISRTPEVTCVVVDVSHEDPEVKFNWYVDGVEVHNAKTKPREEQYNSTYRVVSVLTVLHQDWLNGKEYKCKVSNKALGAPIEKTISKAKGQPREPQVCTLPPSRDELTKNQVSLSCAVKGFYPSDIAVEWESNGQPENNYKTTPPVLDSDGSFFLVSKLTVDKSRWQQGNVFSCSVMHEALHNRFTQKSLSLSPGK light 1: EVILVESGGGLVKPGGSLKLSCAASGFSFSSYTMSWVRQTPEKRLDWVATISGGGRDIYYPDSVKGRFTISRDNAKNTLYLEMSSLMSEDTALYYCVLLTGRVYFALDSWGQGTSVTVSSASVAAPSVFIFPPSDEQLKSGTASVVCLLNNFYPREAKVQWKVDNALQSGNSQESVTEQDSKDSTYSLSSTLTLSKADYEKHKVYACEVTHQGLSSPVTKSFNRGEC light 2: NIVMTPTPKFLPVSSGDRVTMTCRASQSVDNYVAWYQQKPGQSPKLLIYYASNRYIGVPDRFTGSGSGTDFTFTISSVQVEDLAVYFCQQHYSSPYTFGSGTKLEIKRTVAAPSVFIFPPSDRKLKSGTASVVCLLNNFYPREAKVQWKVDNALQSGNSQESVTEQDSKDSTYSLSSTLTLSKADYEKHKVYACEVTHQGLSSPVTKSFNRGEC | binds |  | binding result [1]: binds
PD1-Tim3-0168 (bispecific antibody, human IgG1, kappa, L234A L235A) heavy 1: not shown heavy 2: QVTLKESGPGILQPSQTLSLTCSFSGFSLSTSGMSVGWIRQPSGKGLEWLAHIWLNDDVFFNPALKRRLTISKDTSNNQVFLQIASVVTADTATYYCVRANGYLYALDYWGQGISVTVSSASTKGPSVFPLAPSSKSTSGGTAALGCLVEDYFPEPVTVSWNSGALTSGVHTFPAVLQSSGLYSLSSVVTVPSSSLGTQTYICNVNHKPSNTKVDEKVEPKSCDKTHTCPPCPAPEAAGGPSVFLFPPKPKDTLMISRTPEVTCVVVDVSHEDPEVKFNWYVDGVEVHNAKTKPREEQYNSTYRVVSVLTVLHQDWLNGKEYKCKVSNKALGAPIEKTISKAKGQPREPQVCTLPPSRDELTKNQVSLSCAVKGFYPSDIAVEWESNGQPENNYKTTPPVLDSDGSFFLVSKLTVDKSRWQQGNVFSCSVMHEALHNRFTQKSLSLSPGK light 1: EVILVESGGGLVKPGGSLKLSCAASGFSFSSYTMSWVRQTPEKRLDWVATISGGGRDIYYPDSVKGRFTISRDNAKNTLYLEMSSLMSEDTALYYCVLLTGRVYFALDSWGQGTSVTVSSASVAAPSVFIFPPSDEQLKSGTASVVCLLNNFYPREAKVQWKVDNALQSGNSQESVTEQDSKDSTYSLSSTLTLSKADYEKHKVYACEVTHQGLSSPVTKSFNRGEC light 2: QIVLTQSPAIMSASPGQKVTITCSASSSVNYTQWYQQKLGSSPKLWIYDAFKLAPGVPARFSGSGTGTSYSLTISSMEAEDAASYFCHQWSSYPWTFGGGTKLEIKRTVAAPSVFIFPPSDRKLKSGTASVVCLLNNFYPREAKVQWKVDNALQSGNSQESVTEQDSKDSTYSLSSTLTLSKADYEKHKVYACEVTHQGLSSPVTKSFNRGEC |  |  | binding result [3]: binds; binding result [4]: binds

More lines, main results first:

binding result [2] | binding result [5] | Binder | further results
binds | binds | PD1-Tim3-0359 (bispecific antibody, human IgG1, kappa, L234A L235A, also called 2+2 format bispecific antibody PD1-Tim3-0359) heavy: not shown light 1: QIVLTQSPAIMSASPGQKVTITCSASSSVNYTQWYQQKLGSSPKLWIYDAFKLAPGVPARFSGSGTGTSYSLTISSMEAEDAASYFCHQWSSYPWTFGGGTKLEIKRTVAAPSVFIFPPSDRKLKSGTASVVCLLNNFYPREAKVQWKVDNALQSGNSQESVTEQDSKDSTYSLSSTLTLSKADYEKHKVYACEVTHQGLSSPVTKSFNRGEC light 2: EVILVESGGGLVKPGGSLKLSCAASGFSFSSYTMSWVRQTPEKRLDWVATISGGGRDIYYPDSVKGRFTISRDNAKNTLYLEMSSLMSEDTALYYCVLLTGRVYFALDSWGQGTSVTVSSASVAAPSVFIFPPSDEQLKSGTASVVCLLNNFYPREAKVQWKVDNALQSGNSQESVTEQDSKDSTYSLSSTLTLSKADYEKHKVYACEVTHQGLSSPVTKSFNRGEC | 
 | binds | PD1-Tim3-0476 (bispecific antibody) heavy 1: not shown heavy 2: EVQLVESGGGLVQPGGSLRLSCAASGFNIKTTYMHWVRQAPGKGLEWVGRIDPADDNTKYAPKFQGKATISADTSKNTAYLQMNSLRAEDTAVYYCVRDFGYVAWFAYWGQGTLVTVSSASTKGPSVFPLAPSSKSTSGGTAALGCLVEDYFPEPVTVSWNSGALTSGVHTFPAVLQSSGLYSLSSVVTVPSSSLGTQTYICNVNHKPSNTKVDEKVEPKSCDKTHTCPPCPAPEAAGGPSVFLFPPKPKDTLMISRTPEVTCVVVDVSHEDPEVKFNWYVDGVEVHNAKTKPREEQYNSTYRVVSVLTVLHQDWLNGKEYKCKVSNKALGAPIEKTISKAKGQPREPQVCTLPPSRDELTKNQVSLSCAVKGFYPSDIAVEWESNGQPENNYKTTPPVLDSDGSFFLVSKLTVDKSRWQQGNVFSCSVMHEALHNHYTQKSLSLSPGK light 1: EVQLLESGGGLVQPGGSLRLSCAASGFSFSSYTMSWVRQAPGKGLEWVATISGGGRDIYYPDSVKGRFTISRDNSKNTLYLQMNSLRAEDTAVYYCVLLTGRVYFALDSWGQGTLVTVSSASVAAPSVFIFPPSDEQLKSGTASVVCLLNNFYPREAKVQWKVDNALQSGNSQESVTEQDSKDSTYSLSSTLTLSKADYEKHKVYACEVTHQGLSSPVTKSFNRGEC light 2: DIVMTQSPLSLPVTPGEPASISCRASQSVDNYVAWYLQKPGQSPQLLIYYASNRYIGVPDRFSGSGSGTDFTLKISRVEAEDVGVYYCQQHYSSPYTFGQGTKVEIKRTVAAPSVFIFPPSDRKLKSGTASVVCLLNNFYPREAKVQWKVDNALQSGNSQESVTEQDSKDSTYSLSSTLTLSKADYEKHKVYACEVTHQGLSSPVTKSFNRGEC | 
 | binds | PD1-Tim3-0477 (bispecific antibody) heavy 1: not shown heavy 2: QITLKESGPTLVKPTQTLTLTCTFSGFSLSTSGMSVGWIRQPPGKGLEWLAHIWLNDDVFFNPALKSRLTITKDTSKNQVVLTMTNMDPVDTATYYCVRANGYLYALDYWGQGTLVTVSSASTKGPSVFPLAPSSKSTSGGTAALGCLVEDYFPEPVTVSWNSGALTSGVHTFPAVLQSSGLYSLSSVVTVPSSSLGTQTYICNVNHKPSNTKVDEKVEPKSCDKTHTCPPCPAPEAAGGPSVFLFPPKPKDTLMISRTPEVTCVVVDVSHEDPEVKFNWYVDGVEVHNAKTKPREEQYNSTYRVVSVLTVLHQDWLNGKEYKCKVSNKALGAPIEKTISKAKGQPREPQVCTLPPSRDELTKNQVSLSCAVKGFYPSDIAVEWESNGQPENNYKTTPPVLDSDGSFFLVSKLTVDKSRWQQGNVFSCSVMHEALHNHYTQKSLSLSPGK light 1: EVQLLESGGGLVQPGGSLRLSCAASGFSFSSYTMSWVRQAPGKGLEWVATISGGGRDIYYPDSVKGRFTISRDNSKNTLYLQMNSLRAEDTAVYYCVLLTGRVYFALDSWGQGTLVTVSSASVAAPSVFIFPPSDEQLKSGTASVVCLLNNFYPREAKVQWKVDNALQSGNSQESVTEQDSKDSTYSLSSTLTLSKADYEKHKVYACEVTHQGLSSPVTKSFNRGEC light 2: DIQLTQSPSFLSASVGDRVTITCSASSSVSYTQWYQQKPGKAPKLWIYDAFKLAPGVPSRFSGSGSGTEFTLTISSLQPEDFATYFCHQWSSYPWTFGQGTKLEIKRTVAAPSVFIFPPSDRKLKSGTASVVCLLNNFYPREAKVQWKVDNALQSGNSQESVTEQDSKDSTYSLSSTLTLSKADYEKHKVYACEVTHQGLSSPVTKSFNRGEC | 
